These results are taken from paper PMC7916210, “Identification of Novel phoP-phoQ Regulated Genes that Contribute to Polymyxin B Tolerance in Pseudomonas aeruginosa”.

The chains are these.
B1: PPA14_46900 promoter probe (dsDNA)
DNA 1: GGTTCGTTCAGAAATTGTTCAGGCTTCGTTCAGGCCCGATTCAGGCCGGGTTCAGCAGAA
DNA 2: TTCTGCTGAACCCGGCCTGAATCGGGCCTGAACGAAGCCTGAACAATTTCTGAACGAACC
B2: PPA14_50740 promoter probe (dsDNA)
DNA 1: AATCGATTCAGCAATGGTACAGGTTCGTTCAGTTTCGACCGAACCCTCCCGCTTTCATCG
DNA 2: CGATGAAAGCGGGAGGGTTCGGTCGAAACTGAACGAACCTGTACCATTGCTGAATCGATT
B3: PPA14_11970 promoter probe (dsDNA)
DNA 1: TGTCTTTGTAACAGGAAATCCTCGATGTTCAGTCCGAAACCGAGCTGCGCGCCCCAGTTG
DNA 2: CAACTGGGGCGCGCAGCTCGGTTTCGGACTGAACATCGAGGATTTCCTGTTACAAAGACA
B4: PPA14_52350 promoter probe (dsDNA)
DNA 1: CATTTGCTGGTGTTCGTTCAGCGATGGTTCAGCTTGCCGTGGGCATAGTGGCGGCTTGCA
DNA 2: TGCAAGCCGCCACTATGCCCACGGCAAGCTGAACCATCGCTGAACGAACACCAGCAAATG

The target in this data set is PhoP-His (UniProt A0A0H2Z7U0 1-225). Put plainly: EMSA; PhoP 0, 2, 4 or 8 uM. The note with it: protein: recombinant; tags: C-terminal 6xHis; chain copies: 2; blunt. In general terms: Mobility shift assays separate free from complexed probe on a gel.
As to B1, the binding result was “binds”. The same measure for B2: “binds”.

With B3, the binding result is “binds”. To B4 belongs “binds”.
